Experimental data from patent US20130059772A1, “Use of Repeat Sequence Protein Polymers in Personal Care Compositions” (DANISCO US INC., priority 2003, published 2013).

Legend:
[1] = system: Fibroblasts (HDFn Cell Line)
Experimental: Initial screening was conducted to identify a test range suitable to determine the effect of a broad range of test material concentrations on cell viability. […] Cultured fibroblasts were exposed to the test materials for 48 hours and then changes in cell viability were determined using an MTT assay (i.e., a colorimetric analysis of the metabolic activity of the cultured cells, described in greater detail below).
The purple crystals are extracted from the cells with isopropanol and the amount of crystal formation quantified spectrophotometrically. […] A decrease in color intensity can be a sign of toxicity.
Fibroblasts (Cascade Biologics, HDFn Cell Line, lot#1C0914) were seeded into the individual wells of either a 96-well plate (for the initial pilot work to determine concentration effects on cell viability) in 100 μl of Fibroblast Growth Media (FGM) or in 12-well plates (for the measurement of collagen, elastin and MMP-1) in 1.0 ml of FGM and incubated overnight at 37±2° C. and 5±1% CO2. On the following day, the medium was removed via aspiration to eliminate any non-adherent cells and replaced with fresh FGM. The cells were grown until confluent, with a media change every 48 to 72 hours. Upon reaching confluency, the cells were treated for 24 hours with Dulbecco's Modified Essential Media (DMEM) supplemented with 1.5% FBS to wash out any effects from the growth factors included in the normal FGM. After this 24-hour wash out period, the cells were treated with the test materials at the specified concentrations dissolved in DMEM with 1.5% FBS. Untreated cells (negative controls) received DMEM with 1.5% FBS. The cells were incubated for 48 hours and at the end of the incubation period cell culture medium was either discarded (pilot work) or collected and stored frozen at −75° C. The test materials were tested in triplicate.
After the 2-day incubation, the cell culture medium was removed and the fibroblasts were washed twice with PBS to remove any remaining test material. After the final wash, either 100 μl (96-well plates) or 300 μl (12-well plates) of DMEM supplemented with 0.5 mg/ml MTT were added to each well and the cells were incubated for 1 hour at 37±2° C. and 5±1% CO2. After the incubation, the DMEM/MTT solution was removed and the cells were washed again once with PBS and then either 100 μl (96-well plates) or 1 ml (12-well plates) of isopropyl alcohol were added to each well to extract the purple formazin crystals. For the 12-well plates, two hundred microliters of the isopropyl extracts was transferred to a 96-well plate. The 96-well plates were read at 540 nm using isopropyl alcohol as a blank. The mean MTT absorbance value for the negative control cells was calculated and used to represent 100% value for cell viability. The individual MTT values from the cells undergoing the various treatments were then divided by the mean value for the negative control cells and expressed as a percent, to determine the change in cell viability caused by each treatment.

elastase = experiment: Elastase inhibition assay (fibroblast lysate, STANA substrate); assay type: biochemical, human
Experimental: The RSPP test materials were also tested to determine their effect(s) on elastase activity. In these experiments, human dermal fibroblasts were used as a source of the elastase enzyme. This enzyme was partially purified from the fibroblasts by lysing the cells in an elastase buffer and retaining the soluble portion of the lysate. Portions of this fibroblast lysate were then incubated with test materials and a synthetic elastase substrate, Suc-(Ala3)-p-Nitroaniline (STANA). Elastase acts upon this substrate to release p-nitroaniline, which can be detected spectrophotometrically by measuring the absorbance at a wavelength of 405 nm. An inhibition of the elastase enzyme is noted by a decrease in the amount of released p-nitroaniline when compared to uninhibited enzyme.
Cells were expanded and passed until a sufficient number of cells had been grown (not exceeding 10 passages). When a sufficient number of cells had been grown, the fibroblast lysate containing the elastase enzyme was prepared as follows:
The fibroblasts were washed twice with 15 ml of phosphate buffered saline with each wash removed via aspiration. Ice cold PBS (7.5 ml) was then added to the flask and the cells were detached with a cell scraper. The detached cells/PBS was transferred to a 15 ml centrifuge tube on ice. The flask was rinsed again with 7.5 ml of PBS, which was also transferred to the 15 ml tube. […] The protein concentration of the fibroblast lysate was determined using the Pierce BCA Protein Assay kit (see below for details) and the fibroblast lysate was stored at −75° C. until used (for up to 1 year).
Upon determining the protein concentration of the lysate, a small sample was obtained and the elastase activity of the lysate was determined at 1×, 0.5× and 0.25× concentrations. The activity was determined for each of the different concentrations in exactly the same way that the uninhibited sample was treated in the elastase assay (see below). […] After 1.25 hours, the well plate was removed and read in a 96-well plate reader at 405 nm. The mean absorbances were plotted versus concentration. […]

B1: GC2596-26-E: collagen-like repeat sequence protein polymer, head-[(GAHGPAGPK)2(GAQGPAGPG)24(GAHGPAGPK)2]4-tail; SEQ ID NO:34 (Example 5) (protein)
chain: MDPVVLQRRDWENPGVTQLNRLAAHPPFASDPMGAHGPAGPKGAHGPAGPKGAQGPAGPGGAQGPAGPGGAQGPAGPGGAQGPAGPGGAQGPAGPGGAQGPAGPGGAQGPAGPGGAQGPAGPGGAQGPAGPGGAQGPAGPGGAQGPAGPGGAQGPAGPGGAQGPAGPGGAQGPAGPGGAQGPAGPGGAQGPAGPGGAQGPAGPGGAQGPAGPGGAQGPAGPGGAQGPAGPGGAQGPAGPGGAQGPAGPGGAQGPAGPGGAQGPAGPGGAHGPAGPKGAHGPAGPKGAHGPAGPKGAHGPAGPKGAQGPAGPGGAQGPAGPGGAQGPAGPGGAQGPAGPGGAQGPAGPGGAQGPAGPGGAQGPAGPGGAQGPAGPGGAQGPAGPGGAQGPAGPGGAQGPAGPGGAQGPAGPGGAQGPAGPGGAQGPAGPGGAQGPAGPGGAQGPAGPGGAQGPAGPGGAQGPAGPGGAQGPAGPGGAQGPAGPGGAQGPAGPGGAQGPAGPGGAQGPAGPGGAQGPAGPGGAHGPAGPKGAHGPAGPKGAHGPAGPKGAHGPAGPKGAQGPAGPGGAQGPAGPGGAQGPAGPGGAQGPAGPGGAQGPAGPGGAQGPAGPGGAQGPAGPGGAQGPAGPGGAQGPAGPGGAQGPAGPGGAQGPAGPGGAQGPAGPGGAQGPAGPGGAQGPAGPGGAQGPAGPGGAQGPAGPGGAQGPAGPGGAQGPAGPGGAQGPAGPGGAQGPAGPGGAQGPAGPGGAQGPAGPGGAQGPAGPGGAQGPAGPGGAHGPAGPKGAHGPAGPKGAHGPAGPKGAHGPAGPKGAQGPAGPGGAQGPAGPGGAQGPAGPGGAQGPAGPGGAQGPAGPGGAQGPAGPGGAQGPAGPGGAQGPAGPGGAQGPAGPGGAQGPAGPGGAQGPAGPGGAQGPAGPGGAQGPAGPGGAQGPAGPGGAQGPAGPGGAQGPAGPGGAQGPAGPGGAQGPAGPGGAQGPAGPGGAQGPAGPGGAQGPAGPGGAQGPAGPGGAQGPAGPGGAQGPAGPGGAHGPAGPKGAHGPAGPKMDPGRYQLSAGRYHYQLVWCQK
modifications: silk-elastin repeat sequence protein copolymer
Q: What does the source list for B1?
A: concentrations with adverse effects on cell viability [1]: ≥ 0.07%; Percent Inhibition (elastase; 0.1%): −13%; Percent Inhibition (elastase; 0.5%): −20%; Percent Inhibition (elastase; 1%): −5%
